We go through two sequences from paper PMC2933242.

The series concerns the target T1, ERRα (estrogen-related receptor alpha) (UniProt P11474).
T1 sequence: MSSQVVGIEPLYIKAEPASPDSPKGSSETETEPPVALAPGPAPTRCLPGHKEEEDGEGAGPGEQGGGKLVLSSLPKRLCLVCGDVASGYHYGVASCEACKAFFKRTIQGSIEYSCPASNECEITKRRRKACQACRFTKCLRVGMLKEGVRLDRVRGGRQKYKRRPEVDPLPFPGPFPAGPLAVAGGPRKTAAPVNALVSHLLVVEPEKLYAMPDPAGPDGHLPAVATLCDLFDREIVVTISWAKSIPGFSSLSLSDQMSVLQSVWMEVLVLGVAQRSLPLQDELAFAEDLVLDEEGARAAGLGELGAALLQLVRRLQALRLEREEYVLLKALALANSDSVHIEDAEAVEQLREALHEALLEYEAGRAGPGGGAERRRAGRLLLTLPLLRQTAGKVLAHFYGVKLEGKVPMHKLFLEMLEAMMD
The series can be described thus: competition. The note with it: 10-, 50-, EMSA with 15,000 cpm probe per reaction, buffer, salt, pH and temperature not given (as in ref 28).

On to “GATCTAGCTCCTGCAGGTTCTCAAGGTTGTAGCCCGCACCCTGCTGATC (double strand) [PPARA -54,642 G probe (with -54,645 C)]”, for which the binding signal (fold IC50 (reference)) (unlabeled G vs 32P G probe, 100-fold excess) turned out to be 1.

In the case of “GATCTAGCTCCTGCAGGTTCTCAAGGTTGTAGTCCACACCCTGCTGATC (double strand) [PPARA -54,642 A probe (with -54,645 T)]”, the binding signal (fold IC50 (A competitor / G competitor)) (vs 32P G probe, 100-fold excess of competitor) was found to be 2.3.
